Molecular target: T1, TBSV Flag-p33 replication protein (tomato bushy stunt virus (TBSV), UniProt P15962 1-296)
T1 construct: TBSV p33 replication protein; co-expressed and co-purified with Flag-p92pol; source: yeast, expressed from a plasmid, in detergent-solubilized membrane fraction
T1 sequence: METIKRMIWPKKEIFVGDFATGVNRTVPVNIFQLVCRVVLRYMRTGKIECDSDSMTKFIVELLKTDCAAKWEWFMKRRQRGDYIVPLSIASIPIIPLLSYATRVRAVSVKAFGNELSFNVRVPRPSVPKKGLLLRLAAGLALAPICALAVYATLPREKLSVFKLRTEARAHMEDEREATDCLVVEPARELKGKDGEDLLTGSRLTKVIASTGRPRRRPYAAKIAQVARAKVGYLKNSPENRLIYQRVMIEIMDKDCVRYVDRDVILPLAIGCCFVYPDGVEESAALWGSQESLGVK
Test: co-IP; Flag-affinity purification of Flag-tagged replication proteins (TBSV Flag-p33 + Flag-p92pol or CIRV Flag-p36 + Flag-p95pol) from the detergent-solubilized membrane fraction of yeast; samples cross-linked with formaldehyde; co-purified His6-tagged proteins detected with anti-His antibody; WT, fis1Δ, Fis1p- or Dnm1-ZZ-over-expressing yeast; cycloheximide time course
Settings: partners not purified

B1: yeast His6-Sac1p (enzyme, S. cerevisiae, UniProt P32368 1-623, looked up)
chain: MTGPIVYVQNADGIFFKLAEGKGTNDAVIHLANQDQGVRVLGAEEFPVQGEVVKIASLMGFIKLKLNRYAIIANTVEETGRFNGHVFYRVLQHSIVSTKFNSRIDSEEAEYIKLLELHLKNSTFYFSYTYDLTNSLQRNEKVGPAASWKTADERFFWNHYLTEDLRNFAHQDPRIDSFIQPVIYGYAKTVDAVLNATPIVLGLITRRSIFRAGTRYFRRGVDKDGNVGNFNETEQILLAENPESEKIHVFSFLQTRGSVPIYWAEINNLKYKPNLVLGENSLDATKKHFDQQKELYGDNYLVNLVNQKGHELPVKEGYESVVHALNDPKIHYVYFDFHHECRKMQWHRVKLLIDHLEKLGLSNEDFFHKVIDSNGNTVEIVNEQHSVVRTNCMDCLDRTNVVQSVLAQWVLQKEFESADVVATGSTWEDNAPLLTSYQNLWADNADAVSVAYSGTGALKTDFTRTGKRTRLGAFNDFLNSASRYYQNNWTDGPRQDSYDLFLGGFRPHTASIKSPFPDRRPVYIQLIPMIICAALTVLGATIFFPKDRFTSSKNLLYFAGASIVLALSTKFMFKNGIQFVNWPKLVDVGFLVVHQTHDKEQQFKGLKYAQSPKFSKPDPLKRD
notes: Sac1p PI4P phosphatase, S. cerevisiae; source: yeast, expressed from a plasmid, in detergent-solubilized membrane fraction
fold of co-purified Sac1p, Fis1p-over-expressing against WT yeast: > 2 fold

B2: yeast His6-Osh6p (natural protein, S. cerevisiae, UniProt Q02201 1-448, looked up)
chain: MGSKKLTVGSDSHRLSKSSFSSNKSSHSATKDQPIDTDDIDEDDESGHNIILNIISQLRPGCDLTRITLPTFILEKKSMLERVTNQLQFPEFLLQAHSEKDPLKRFLYVMKWYLAGWHIAPKAVKKPLNPVLGEYFTAYWDLPNKQQAYYISEQTSHHPPECAYFYMIPESSIRVDGVVIPKSRFLGNSSAAMMDGSTVLQFLDIKDGNGKPEKYVLTQPNVYVRGILFGKMRIELGDHMIIKSPNFQADIEFKTKGYVFGTYDAIEGTVKDYDGNAYYEISGKWNDVMYLKDLKQPRSSPKVFLDTHKESPLRPKVRPLSEQGEYESRKLWKKVTDALAVRNHPVATEEKFQIEDHQRQLAKKRIEDGVEFHPKLFRRSKPGEDLDYCIYKNIPVDEDPEKQIRSILQIAPILPGQQFTDKFFIPAFEKIKSQKKMIENEKQNPAKQ
notes: source: yeast, expressed from a plasmid, in detergent-solubilized membrane fraction
fold of co-purified Osh6p, Fis1p-over-expressing against WT yeast: 3.5 fold more
fold of co-purified Osh6p, fis1Δ against WT yeast: ~4 fold less

B3: yeast His6-Fis1p (natural protein, S. cerevisiae, UniProt P40515 1-155, looked up)
chain: MTKVDFWPTLKDAYEPLYPQQLEILRQQVVSEGGPTATIQSRFNYAWGLIKSTDVNDERLGVKILTDIYKEAESRRRECLYYLTIGCYKLGEYSMAKRYVDTLFEHERNNKQVGALKSMVEDKIQKETLKGVVVAGGVLAGAVAVASFFLRNKRR
notes: Fis1p mitochondrial fission 1 protein, S. cerevisiae; also called HisScFis1; source: yeast, expressed from a plasmid, in detergent-solubilized membrane fraction
fold reduction of co-purified Fis1p when Dnm1p is co-expressed, against yeast without Dnm1p over-expression: ~8 fold

Reference: article PMC7997005, “Dynamic interplay between the co-opted Fis1 mitochondrial fission protein and membrane contact site proteins in supporting tombusvirus replication” (PLoS Pathogens, 2021)
